Data taken from the supplement of paper PMC10567573.

B1: ANKRD40 (parent)
chain: YQELLRVCCCELGVNPDQVEKIRK

Variants of: B1
Experiment: protein stability index of a GFP-peptide fusion (GPS, HEK-293T) (PSI 1-6); higher = more stable
Conditions: c terminus: a fixed tail appended
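Further: lentivirally expressed fusions sorted by FACS into six bins by GFP to DsRed ratio, PSI derived from sequencing read proportions per bin multiplied by bin number.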

Protein stability index of substitutions, site by site:
Q2: P 2.08 | R 2.58 | G 2.08 | N 2.52 | Y 1.86 | C 1.64 | M 1.76 | E 2.98 | L 1.51 | H 1.77 | I 1.73 | S 1.57 | K 2.5 | W 1.67 | F 1.44
Y1: P 1.6 | W 1.29 | A 2.96 | H 3.27 | N 3.55 | Q 3.28 | C 1.95 | R 2.16 | L 1.51 | I 1.78 | E 3.69 | F 1.99 | M 2.29
V14: E 2.72 | F 2.27 | M 2.07 | Q 1.72 | Y 2.13 | H 2.22 | S 2.32 | R 1.5 | N 1.85 | I 1.61 | D 2.88 | L 2.18
P16: H 1.43 | Q 2.5 | F 1.14 | M 1.5 | Y 1.99 | E 2.14 | R 2.41 | N 2.4 | L 2.11 | K 2.26 | C 2.52 | D 2.86 | I 1.52
R23: T 2.08 | S 1.72 | W 1.72 | F 1.55 | P 1.57 | E 1.6 | A 1.91 | N 1.93 | L 1.98 | K 1.25 | H 1.84 | Y 1.8 | V 2.9 | G 1.56 | M 2.02 | D 2.04
L4: Q 2.42 | I 2.58 | C 2.15 | S 2.27 | A 2.63 | M 1.82 | D 3.98 | N 2.55 | R 1.79 | H 3 | E 3.05 | K 2.94
R6: L 1.74 | I 1.49 | M 1.73 | Q 2.26 | N 2.26 | T 1.54 | S 2.03 | H 2.11 | C 1.92 | F 1.78 | K 1.91 | G 2.23 | Y 2.18 | A 2.02
E3: M 1.64 | K 1.96 | F 1.76 | N 2.09 | Q 1.59 | R 1.21 | Y 1.66 | A 1.52 | T 2.13 | H 2.01 | S 2.26 | D 1.59 | P 2.21
C8: E 3.56 | Q 3.52 | P 2.12 | M 2.09 | D 3.81 | K 2.19 | S 3.33 | L 2.24 | A 3.16 | R 2.21 | H 2.84 | I 2.38 | F 1.44 | T 3.53
N15: T 3.74 | S 2.1 | Y 1.78 | C 1.63 | D 2.08 | R 2.21 | Q 1.62 | A 1.96 | F 1.45 | M 2.21 | G 1.26 | K 2.08 | H 2.75 | E 2.27
G13: V 1.71 | Q 1.57 | E 2.42 | M 2.01 | K 1.62 | W 2.84 | R 1.66 | N 1.78 | F 1.55 | D 2.19 | S 3.16 | H 1.79 | T 2.13 | L 1.62 | I 1.78 | Y 1.05 | P 2.06
C9: L 1.55 | R 2.31 | W 2.23 | P 2.59 | D 3.15 | S 2.14 | F 3.38 | H 2.15 | G 3.22 | E 2.35 | M 1.81 | Y 2.66 | V 1.82 | N 2.15
